{
  "source": "paper doi:10.1101/2020.09.30.318261",
  "target": "SARS-CoV-2 prefusion stabilised spike ectodomain trimer (SARS-CoV-2) (UniProt P0DTC2)",
  "experiment": "cryo-EM structure",
  "data": [
    {"substance": "SARS-CoV-2 prefusion stabilised spike ectodomain trimer (from UniProt P0DTC2 14-1200) (domain or fragment)", "values": [
      {"measurement": "stoichiometry N", "result": 3}
    ]}
  ]
}
